± gives the standard error. This sample holds only a part of the variants without activity.
B1: glmS ribozyme (parent)
chain: AUAAAAGCGCCAGAACUACAGAAAUGUAGUUGACGAGGAGGAGGUUUAUCGAAUUUUCGGCGGAUGCCUCCAAA

Columns and labels:
Conditions in all cases: with glucosamine-6-phosphate
[1] = variants of: B1; assay: self-cleavage kobs at 40 uM GlcN6P; higher = faster cleavage; RNA array
Summary of the method: (§1)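 Barcoded ribozyme variants on sequenced MiSeq chips were transcribed in situ by E. coli RNA polymerase and followed at 37 °C through a hybridised Cy3 probe. Glucosamine-6-phosphate at 40 μM to 10 mM in HEPES/KCl/Mg(OAc)2 buffer was flowed in, and tiles were imaged over ~14 h. Signals were normalised to baseline and to non-cleaving reference variants, and per-tile medians were fit to one- or two-exponential decays to give kobs. Weighted Michaelis–Menten fits across concentrations gave kcat and KM.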

[2] = variants of: B1; assay: self-cleavage kobs at 2500 uM GlcN6P; higher = faster cleavage; RNA array
Summary of the method: as §1

[3] = variants of: B1; assay: self-cleavage kobs at 10000 uM GlcN6P; higher = faster cleavage; RNA array
Summary of the method: as §1

[4] = variants of: B1; assay: self-cleavage kobs at 160 uM GlcN6P; higher = faster cleavage; RNA array
Summary of the method: as §1

[5] = variants of: B1; assay: self-cleavage kobs at 640 uM GlcN6P; higher = faster cleavage; RNA array
Summary of the method: as §1

| Variant | self-cleavage kobs at 40 uM GlcN6P [1] [s⁻¹] | self-cleavage kobs at 2500 uM GlcN6P [2] [s⁻¹] | self-cleavage kobs at 10000 uM GlcN6P [3] [s⁻¹] | self-cleavage kobs at 160 uM GlcN6P [4] [s⁻¹] | self-cleavage kobs at 640 uM GlcN6P [5] [s⁻¹] |
| --- | --- | --- | --- | --- | --- |
| C19A U31A | 0.000156 ± 5.1e-05 | 0.00209 ± 0.001 | 0.00693 ± 0.0019 |  |  |
| G13U G32A C50U | < 1e-05 | < 1e-05 | < 1e-05 |  |  |
| G35C A42U | < 1e-05 | < 1e-05 |  | < 1e-05 | < 1e-05 |
| G38A G43A | < 1e-05 |  | < 1e-05 |  | < 1e-05 |
| C11U G32U U49A C71A | < 1e-05 |  |  |  |  |
| G7U C50G | 0.000281 ± 8.4e-05 | 0.0008 ± 0.00024 |  | 0.000551 ± 0.00024 |  |
| G38U C50U G51C U69A | 8.35e-05 ± 3.9e-05 |  |  |  |  |
| C11G U69G C71U | 4.35e-05 ± 2.1e-05 |  |  |  |  |
| G7A U46G | < 1e-05 |  |  | < 1e-05 | < 1e-05 |
| A6C C58G | < 1e-05 |  | < 1e-05 |  | < 1e-05 |
| U31C C68A | < 1e-05 |  | < 1e-05 |  |  |
| A42C G66C | < 1e-05 | < 1e-05 | < 1e-05 | < 1e-05 | < 1e-05 |
| G13A U46G | < 1e-05 |  | 0.00013 ± 3e-05 | < 1e-05 |  |
| G13A A15U A33U G37U U46C U49A | < 1e-05 | < 1e-05 |  |  |  |
| C11A A15C U45G C70U | < 1e-05 |  |  |  |  |
| U49G C61U | < 1e-05 |  |  | < 1e-05 |  |
| A15G G37C C58U | < 1e-05 |  |  |  |  |
| C34G A48G C68G | 8.52e-05 ± 3.4e-05 |  |  |  |  |
| C50G C58A C67A | 7.83e-05 ± 1.2e-05 |  | 9.18e-05 ± 1.4e-05 |  |  |
| G41U G60U U69C | < 1e-05 |  | < 1e-05 |  |  |
| A36G G63A C67G | < 1e-05 |  | < 1e-05 |  |  |
| G7C U31C G43C C50U | < 1e-05 |  | < 1e-05 | < 1e-05 | < 1e-05 |
| C11U G35C | < 1e-05 |  |  |  |  |
| U30C A48U | < 1e-05 |  | < 1e-05 | < 1e-05 | < 1e-05 |
| G7A G51U | < 1e-05 | < 1e-05 |  | < 1e-05 | < 1e-05 |

| Variant | self-cleavage kobs at 40 uM GlcN6P [1] [s⁻¹] | self-cleavage kobs at 2500 uM GlcN6P [2] [s⁻¹] | self-cleavage kobs at 10000 uM GlcN6P [3] [s⁻¹] | self-cleavage kobs at 160 uM GlcN6P [4] [s⁻¹] | self-cleavage kobs at 640 uM GlcN6P [5] [s⁻¹] |
| --- | --- | --- | --- | --- | --- |
| C8U G43A | < 1e-05 |  |  | < 1e-05 |  |
| G9A G51A | < 1e-05 |  | < 1e-05 |  |  |
| A6C A15C U54C C71U | < 1e-05 |  |  |  |  |
| G29U A42C C58A C67G | < 1e-05 | < 1e-05 |  |  | < 1e-05 |
| C16A C58U | < 1e-05 |  | 3.14e-05 ± 1.3e-05 | < 1e-05 |  |
| C16G G59U | < 1e-05 | < 1e-05 |  |  | < 1e-05 |
| G29U G35U C70U | < 1e-05 | < 1e-05 |  |  |  |
| G29U C70U | 0.000204 ± 2.4e-05 | 0.00187 ± 0.00047 | 0.00452 ± 0.00093 | 0.000273 ± 4.2e-05 | 0.000574 ± 7.2e-05 |
| G32U G35A U57C | < 1e-05 |  |  | < 1e-05 |  |
| C58G G62U C68A | 4.88e-05 ± 1.8e-05 |  |  |  |  |
| U46C G51U | < 1e-05 | < 1e-05 |  | < 1e-05 | < 1e-05 |
| C8G G41A | < 1e-05 | < 1e-05 | < 1e-05 | < 1e-05 |  |
| U30C U31C | 3.3e-05 ± 1.1e-05 | 0.00125 ± 0.00016 | 0.00328 ± 0.00041 | 0.000413 ± 7.4e-05 | 0.000788 ± 0.00016 |
| C8U A12U A33C G59U C67G U69G | < 1e-05 | < 1e-05 | < 1e-05 |  |  |
| U56C G59A | < 1e-05 |  |  |  |  |
| C10G U46G | < 1e-05 | < 1e-05 |  | < 1e-05 | < 1e-05 |
| G37U G40U U45C | < 1e-05 |  | < 1e-05 |  |  |
| G13C C16U C67A | < 1e-05 |  | 3.41e-05 ± 1.2e-05 |  |  |
| C16U U30G | 4.04e-05 ± 1.4e-05 | 0.000944 ± 0.00032 | 0.00235 ± 0.00062 | 6.14e-05 ± 1.5e-05 | 0.000244 ± 6.5e-05 |
| G29U G35A A48G A53C | < 1e-05 |  |  |  | < 1e-05 |
| G29C C34U | < 1e-05 | < 1e-05 | < 1e-05 | < 1e-05 | < 1e-05 |
| G9U A15C U47C | < 1e-05 |  |  |  |  |
| A12U A15U A42G | 0.000666 ± 0.00019 | 0.00849 ± 0.0038 |  |  | 0.00157 ± 0.00069 |
| A42G G43C | < 1e-05 |  | < 1e-05 |  | < 1e-05 |

Source: the supplement of paper PMC7125110
